Laboratory results reported in US20150111231A1 (SHIONOGI, published 2015).
Groups on a side chain read outwards from the residue. Primed or numbered codes have the meaning given here. No end group written: not given here. *: point of attachment. Biotin = O=C1N[C@H]2[C@H](CS[C@H]2CCCCC(=O)*)N1; PEG2′ = not defined here

B1: biotinylated N-terminal cysteine-containing neoepitope peptide (peptide)
peptide: C([Maleimide-PEG2′-Biotin])TEEISEVKM
notes: also called biotinylated peptide; biotynylated peptide
B2: anti-neoepitope antibody 4G4 (antibody, IgG2a, V domains shown)
VH: EMKLVESGGGLVEPGGSLKLSCAASGFTFSNYAMSWVRQTPDKRLEWVASIGRGGSTFYPDSVKGRFTISRDRVRNILYLQMNSLRSEDTAIYYCRVIYSQSISFDYWGQGTTLTVSS
VL: not shown
notes: It was biotinylated when used as capture antibody in the sandwich ELISA; also called anti-sAPP β monoclonal antibody (4G4)

Columns and labels:
[1] = target: T1, anti-internal structure antibody 5H10; assay: competitive ELISA of 5H10, unlabelled peptide varied against the biotinylated internal structural peptide
T1 construct: also called internal antibody 5H10; internal structural antibody
Description: Reactivity of the antibody, 5H10 to the four fragment peptides 1˜4 (SEQ ID No.: 8, 9, 10, 11) was evaluated by competitive ELISA in the same method as Example 1.

[2] = target: B2; assay: competitive ELISA: 4G4 captured on anti-mouse IgG plate, unlabelled immunogen peptide (SEQ ID No. 2) varied against the biotinylated neoepitope peptide with streptavidin-HRP
Description: 10 μl of the antibody solution containing 4G4 and 10 μl of the immunogen peptide (SEQ ID No.:2) or the long peptide ([…] SEQ ID No. 3 SIGMA) or human sAPPβ (MESO SCALE DISCOVERY) or human sAPPα (MESO SCALE DISCOVERY) and 10 μl of 0.04 ng the biotynylated peptide and 2 ng streptavidin-HRP in buffer A were placed into the above anti-mouse IgG-immobilized plates and incubated overnight at 4° C. The plates were washed three times and 25 μl of TMB substrate solution (DAKO) was added and incubated for 30 min. The reaction was finally stopped by addition of 25 μl of 0.05NH2SO4, and optical absorbance was measured at wavelength of 450 nm (FIG. 3).

[3] = target: B1; assay: screening ELISA: hybridoma supernatant on anti-mouse IgG plate, biotinylated peptide and streptavidin-HRP

T1 sequence (VH, as listed by the source, chain 1 of 2): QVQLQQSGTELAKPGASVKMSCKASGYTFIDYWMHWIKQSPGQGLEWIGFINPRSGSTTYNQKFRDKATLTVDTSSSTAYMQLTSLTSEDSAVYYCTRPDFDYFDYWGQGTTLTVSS
T1 sequence (VL, as listed by the source, chain 2 of 2): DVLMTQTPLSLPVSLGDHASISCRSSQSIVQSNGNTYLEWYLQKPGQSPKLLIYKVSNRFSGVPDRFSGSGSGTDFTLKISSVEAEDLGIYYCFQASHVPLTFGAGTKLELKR

Binder | binding result [1] | other results
RPAADRGLTTRP (partial peptide of the 5H10 immunogen; also called fragment peptide 3) [Fragment 3] | no binding (tested: about 150 nM) | 
DSVPANTENEVE (partial peptide of the 5H10 immunogen; also called fragment peptide 1) [Fragment 1] | no binding (tested: about 150 nM) | 
DSVPANTENEVEPVDARPAADRGLTTRPGSGLTNC (also called C-terminal cysteine-containing internal structural peptide; Immunogen 2 peptide) [Immunogen peptide] | binds | 
B1 |  | binding result [2]: binds
NEVEPVDARPAA (partial peptide of the 5H10 immunogen; also called fragment peptide 2) [Fragment 2] | no binding (tested: about 150 nM) | 
B2 |  | binding result [3]: binds
